Test results reported in patent publication US20160090401A1 (UNIVERSITY OF BRISTOL, published 2016).
Bridge positions count the residues as written; N and C are the ends. I, II: the chains in the order shown.

B2: CC-Di-B (peptide)
peptide: Ac-GKIAALKKKNAALKQKIAALKQGYW-NH2
notes: Free module

Tests used:
CC-Di-BI = target: T1, CC-Di-BI (N-terminal acetyl; C-terminal amide); test: method not stated for this variant
T1 construct: also called basic peptide of CC-Di-AIBI
T1 peptide: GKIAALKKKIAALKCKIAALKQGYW

[1] = target: the molecule itself; test: CD spectroscopy of the peptide alone (no homomeric coiled coil)
CC-Di-B = target: B2; test: CD-monitored thermal denaturation over a range of peptide concentrations, extrapolated to 20 °C; dissociation of the heterodimer (two-state)
CC-Tri3-CC-Di-BQ = target: T2, CC-Tri3-CC-Di-BQ (N-terminal acetyl; C-terminal amide; Cys in an asymmetric disulfide with the Cys of the trimer chain; N-terminal acetyl; C-terminal amide; Cys in an asymmetric disulfide with the Cys of the CC-Di-BQ …); test: mixing with the respective partner in PBS, 50 µM; SEM
T2 peptide 1: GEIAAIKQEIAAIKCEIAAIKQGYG
T2 peptide 2: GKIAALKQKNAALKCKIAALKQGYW

[2] = target: the molecule itself; test: CD-monitored thermal denaturation over a range of peptide concentrations, extrapolated to 20 °C; dissociation of the homotrimer (two-state)
CC-Di-AB = target: T3, CC-Di-AB (N-terminal acetyl (Ac-); C-terminal amide (printed -NH)); test: CD thermal melting of the mixture, the same as the average of the two independent profiles
T3 construct: also called heterodimer CC-Di-AB; heterodimeric coiled coil
T3 peptide 1: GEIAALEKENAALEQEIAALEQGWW
T3 peptide 2: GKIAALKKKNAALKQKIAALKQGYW

B1: CC-Di-AI (peptide)
peptide: Ac-GEIAALEKEIAALECEIAALEQGWW-NH2
notes: also called acidic peptide of CC-Di-AIBI
In the case of B1, the “affinity relative to the CC-Di-AB parent” value (CC-Di-BI) is reported as greater than 100 fold.

B2: no binding (tested: micromolar range) [1].

B3: CC-Di-A (peptide)
peptide: Ac-GEIAALEKENAALEQEIAALEQGWW-NH2
notes: Free module
For B3, the binding result [1] was “no binding (tested: micromolar range)” and the Kd (CC-Di-B) was 58.3 nM.

B4: CC-Tri3-CC-Di-AQ (other)
peptide 1: Ac-GEIAAIKQEIAAIKCEIAAIKQGYG-NH2
peptide 2: Ac-GEIAALEQENAALECEIAALEQGWW-NH2
modifications: disulfide I:15-II:15 (inferred)
B4: binds (CC-Tri3-CC-Di-BQ).

B5: CC-Tri3 (peptide)
peptide: Ac-GEIAAIKKEIAAIKQEIAAIKQGYG-NH2
notes: also called homotrimer CC-Tri3; homotrimeric coiled coil
With B5 the Kd [2] was 0.0399 pM and the binding result (CC-Di-AB) was “no binding”.
